In doi:10.1101/2024.09.24.614852:

Molecular target: tau 2N4R wild type (tau-441) (human, UniProt P10636-8 1-441)
Assay: EMSA

B1: 24-bp duplex (dsDNA)
DNA 1: TCGACACGGAAATGTTGAATACTA
DNA 2: TAGTATTCAACATTTCCGTGTCGA
B1: binds.
